# Assay results as given in publication PMC8290868 (Cell Discovery, 2021).
# B1: 7B8, recombinant fully human IgG1 (antibody, V domains shown)
# VH: QVQLVESGGGVVQPGRSLRLSCAASGFIFSSYGMHWVRQAPGKGLEWVAVIWFDGSNKYYADSVKGRFTISRDNSKNTLYLQMNSLRAEDTAVYYCARETVSYGMDVWGQGTTVTVSS
# VL: NIQMTQSPSAMSASVGDRVTITCRARQGISNYLAWFQQKPGKVPKHLIYAASSLLSGVPSRFSGSGSETEFTLTISSLQPEDFATYYCLQHNSYPYTFGQGTKLEIK
# notes: also called Ab4; source: ExpiCHO-S, transient expression, purified (protein A)
# Target: SARS-CoV-2 spike receptor-binding domain (RBD), wild type (Severe acute respiratory syndrome …, UniProt P0DTC2)
# Experiment: SPR
# Conditions: both partners purified
binder,measurement,value
B1,Kd,0.523 nM
same,koff,9.55e-05 s⁻¹
same,kon,182000 M⁻¹ s⁻¹
